Among the data in the supplement of paper PMC10567573 are protein stability index values, retold here.

The labels stand for the following.
B1: MIA2 (parent)
chain: DMVSNIELPTRIHEEVYFEPSSSK
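Further: lentivirally expressed fusions sorted by FACS into six bins by GFP to DsRed ratio, PSI derived from sequencing read proportions per bin multiplied by bin number.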

Variants of B1 are the subject of the data set. The data set can be described thus: protein stability index of a GFP-peptide fusion (GPS, HEK-293T) (PSI 1-6); higher = more stable. The note with it: c terminus: a fixed tail appended.
DMVSNIELPTRIHEEVYFEFSSSK [P20F]: the protein stability index was determined as 2.42.

As for DMVSNIELPTRIHEEVYFESSSSK [P20S], the protein stability index was found to be 3.52.

Turning to DMVSNIELPTRIHEEVYFEGSSSK [P20G], the protein stability index was found to be 4.16.

Regarding DMVQNIELPTRIHEEVYFEPSSSK [S4Q], the protein stability index came out at 3.52.

In the case of DMVSNIELPTRIHEESYFEPSSSK [V16S], the protein stability index came to 4.02.

On to DLVSNIELPTRIHEEVYFEPSSSK [M2L], for which the protein stability index worked out at 3.7.

In the case of DMVSNIELPTRIHEEVVFEPSSSK [Y17V], the protein stability index was 4.3.

As for DMVSNIELPTRIHEEVGFEPSSSK [Y17G], the protein stability index came to 4.47.

As to DMVSNIELPTRIHEEVSFEPSSSK [Y17S], the protein stability index came out at 4.06.

Turning to DMVSNIELPTRIHEEVRFEPSSSK [Y17R], the protein stability index is 5.01.

As for DMVSNIELPTRIHEEVCFEPSSSK [Y17C], the protein stability index is 4.52.

With TMVSNIELPTRIHEEVYFEPSSSK [D1T], the protein stability index turned out to be 3.63.

Take DMVSNMELPTRIHEEVYFEPSSSK [I6M]: the protein stability index is 4.32.

Turning to DMVSNKELPTRIHEEVYFEPSSSK [I6K], the protein stability index was 4.68.

Regarding DMVSNIELPTRIHEEVYFEPSSDK [S23D], the protein stability index was 4.84.

For DMVSNIELPTRIHEEVYFEPSSTK [S23T], the protein stability index was 3.92.

For DMVSNIELPTRIHEEVYFEPSSWK [S23W], the protein stability index came out at 3.08.

As for DMVSNIELPTRIHEEVYFEPSSNK [S23N], the protein stability index stood at 3.98.

With DMVSNIELPTRIHEEVYFEPSSKK [S23K], the protein stability index stood at 3.65.

For DMVSNIELPTRIHEEVYFEPSSQK [S23Q], the protein stability index amounted to 4.41.

For the variant DMVSNIELPTRIHEEVYFEPSFSK [S22F], the protein stability index is 3.37.

For DMVSNIELPTRIHEEVYFEPSPSK [S22P], the protein stability index was found to be 4.02.

On to DMVSNIELPTRIHEEVYFEPSHSK [S22H], for which the protein stability index was 4.35.

As to DMVSNIELPTRIHEEVYFEPSQSK [S22Q], the protein stability index worked out at 4.13.

Regarding DMVSNIELPTRIHEEVYFEPSLSK [S22L], the protein stability index is 2.58.

DMVSNIELPTRIHEEVYFEPSNSK [S22N]: the protein stability index is 4.12.

For DMVSNIELPTRIHEEVYFEPSSSV [K24V], the protein stability index turned out to be 3.51.

As for DMVSNIELPTRIHEEVYFEPSSSS [K24S], the protein stability index worked out at 3.95.

As for DMVSNIELPTRIHEEVYFEPSSSG [K24G], the protein stability index amounted to 4.55.

As to DMVSNIELPTRIHEEVYFEPSSST [K24T], the protein stability index was 4.02.

DMVSNIELHTRIHEEVYFEPSSSK [P9H]: the protein stability index worked out at 3.5.

With DMVSNIELSTRIHEEVYFEPSSSK [P9S], the protein stability index came to 3.31.

In the case of DMVSNIELYTRIHEEVYFEPSSSK [P9Y], the protein stability index came to 3.41.

Take DMVSNIELTTRIHEEVYFEPSSSK [P9T]: the protein stability index amounted to 3.69.

Regarding DMVSNIELNTRIHEEVYFEPSSSK [P9N], the protein stability index worked out at 4.06.

With DMVSNIELWTRIHEEVYFEPSSSK [P9W], the protein stability index is 2.98.

With DMVSNIELETRIHEEVYFEPSSSK [P9E], the protein stability index came out at 4.21.

With DMVSNIELPTRIHEEVYFGPSSSK [E19G], the protein stability index is 3.09.

Turning to DMVSNIELPTRIHEEVYFLPSSSK [E19L], the protein stability index was found to be 3.63.

Turning to DMVSNIELPTRIHEEVYFKPSSSK [E19K], the protein stability index was 3.54.

In the case of DMVSNIELPTRIHEEVYFYPSSSK [E19Y], the protein stability index came out at 2.87.

Turning to DMVSNIELPTRIHEEVYFHPSSSK [E19H], the protein stability index was determined as 3.14.

Consider DMVSNIELPTRIHEEVYFPPSSSK [E19P], for which the protein stability index stood at 3.52.

Take DMVSNIELPTRIHEEVYFIPSSSK [E19I]: the protein stability index turned out to be 2.64.

Turning to DMVSNIELPTRIHEEVYFCPSSSK [E19C], the protein stability index was 2.96.

With DMVSNIENPTRIHEEVYFEPSSSK [L8N], the protein stability index stood at 4.44.

With DMVSNIEAPTRIHEEVYFEPSSSK [L8A], the protein stability index was 4.46.

For DMVSNIETPTRIHEEVYFEPSSSK [L8T], the protein stability index was 4.

In the case of DMVSNIEKPTRIHEEVYFEPSSSK [L8K], the protein stability index came to 3.83.

As for DMVSYIELPTRIHEEVYFEPSSSK [N5Y], the protein stability index turned out to be 2.46.

Take DMVSGIELPTRIHEEVYFEPSSSK [N5G]: the protein stability index was determined as 3.84.

Turning to DMVSNIELPTRIFEEVYFEPSSSK [H13F], the protein stability index stood at 3.81.

Regarding DMVSNIELPTRINEEVYFEPSSSK [H13N], the protein stability index came out at 4.19.

Turning to DMVSNIELPTRIAEEVYFEPSSSK [H13A], the protein stability index stood at 4.

For DMVSNIELPTRIHEEVYLEPSSSK [F18L], the protein stability index was 4.5.

On to DMVSNIELPTRIHEEVYQEPSSSK [F18Q], for which the protein stability index is 5.12.

On to DMVSNIELPTRIHEEVYDEPSSSK [F18D], for which the protein stability index came out at 5.29.

Turning to DMVSNIELPTRIHEEVYVEPSSSK [F18V], the protein stability index came out at 3.8.

Take DMLSNIELPTRIHEEVYFEPSSSK [V3L]: the protein stability index is 3.53.

As to DMVSNIELPTRIHKEVYFEPSSSK [E14K], the protein stability index came out at 3.36.

Regarding DMVSNIELPTRIHAEVYFEPSSSK [E14A], the protein stability index is 3.51.

For DMVSNIELPTRIHSEVYFEPSSSK [E14S], the protein stability index worked out at 3.29.

Consider DMVSNIELPTRIHREVYFEPSSSK [E14R], for which the protein stability index came to 2.98.

For the variant DMVSNIELPTRIHERVYFEPSSSK [E15R], the protein stability index is 2.96.

Consider DMVSNIELPTRIHEQVYFEPSSSK [E15Q], for which the protein stability index was 3.44.

Regarding DMVSNIELPTRIHEGVYFEPSSSK [E15G], the protein stability index is 3.84.

With DMVSNIELPTRIHEYVYFEPSSSK [E15Y], the protein stability index is 3.22.

On to DMVSNIELPTQIHEEVYFEPSSSK [R11Q], for which the protein stability index turned out to be 4.42.

Turning to DMVSNIELPTLIHEEVYFEPSSSK [R11L], the protein stability index is 3.94.

Take DMVSNIELPTAIHEEVYFEPSSSK [R11A]: the protein stability index amounted to 4.7.

Turning to DMVSNIELPTDIHEEVYFEPSSSK [R11D], the protein stability index worked out at 4.49.

In the case of DMVSNIELPTFIHEEVYFEPSSSK [R11F], the protein stability index is 3.42.

With DMVSNIELPTWIHEEVYFEPSSSK [R11W], the protein stability index is 3.52.

For the variant DMVSNIELPTPIHEEVYFEPSSSK [R11P], the protein stability index was found to be 4.09.

As for DMVSNIILPTRIHEEVYFEPSSSK [E7I], the protein stability index amounted to 2.88.

DMVSNIPLPTRIHEEVYFEPSSSK [E7P]: the protein stability index is 3.34.

Consider DMVSNIKLPTRIHEEVYFEPSSSK [E7K], for which the protein stability index turned out to be 3.03.

For the variant DMVSNIYLPTRIHEEVYFEPSSSK [E7Y], the protein stability index is 2.11.

For DMVSNIMLPTRIHEEVYFEPSSSK [E7M], the protein stability index is 3.29.

Take DMVSNICLPTRIHEEVYFEPSSSK [E7C]: the protein stability index turned out to be 3.32.

With DMVSNINLPTRIHEEVYFEPSSSK [E7N], the protein stability index is 2.85.

Turning to DMVSNIELPYRIHEEVYFEPSSSK [T10Y], the protein stability index came to 3.83.

In the case of DMVSNIELPARIHEEVYFEPSSSK [T10A], the protein stability index was determined as 4.23.

With DMVSNIELPCRIHEEVYFEPSSSK [T10C], the protein stability index worked out at 1.67.

Regarding DMVSNIELPIRIHEEVYFEPSSSK [T10I], the protein stability index was determined as 3.94.

In the case of DMVSNIELPTRIHEEVYFEPTSSK [S21T], the protein stability index came out at 3.75.

For DMVSNIELPTRIHEEVYFEPFSSK [S21F], the protein stability index stood at 3.56.

On to DMVSNIELPTRIHEEVYFEPCSSK [S21C], for which the protein stability index came out at 3.71.

Take DMVSNIELPTRIHEEVYFEPGSSK [S21G]: the protein stability index was found to be 4.47.

Consider DMVSNIELPTRWHEEVYFEPSSSK [I12W], for which the protein stability index worked out at 3.59.

DMVSNIELPTRKHEEVYFEPSSSK [I12K]: the protein stability index came to 3.64.

Regarding DMVSNIELPTRRHEEVYFEPSSSK [I12R], the protein stability index turned out to be 3.06.

With DMVSNIELPTRVHEEVYFEPSSSK [I12V], the protein stability index was determined as 4.25.

For DMVSNIELPTRHHEEVYFEPSSSK [I12H], the protein stability index stood at 3.42.
